Measured values taken from the supplement of paper PMC12042874.
± gives the uncertainty stated by the source.

Experiment: amyloid nucleation score (Sup35N fusion, yeast selection) (log enrichment); library NNK3; higher = more nucleation; inactive = no reads after selection
Procedure, shortened: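 Peptides of 20 random codons fused to Sup35N were expressed in psi-negative yeast, induced 24 hours with 100 μM copper sulfate, then grown 7 days at 30°C on medium lacking adenine and uracil. Input and output plasmid inserts were Illumina-sequenced. Nucleation score is the DiMSum log enrichment of output over input reads, centred on the mode score of non-aggregating sequences, excluding sequences with under 100 input reads. Random libraries had three technical output replicates.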

Row | Substance | amyloid nucleation score
1 | CDGNMVGSTAIPVSFFPFGR | inactive
2 | TPLDDLMCQLCSGYPLVILP | inactive
3 | KGGSVGHQQLYMCWQYNPVF | inactive
4 | RNCNETLNIVETGNSISANV | inactive
5 | ANSDCLFARFDRLFDVSVED | -0.295 ± 0.71
6 | VRRDLGFFSRNVT | inactive
7 | YDLVSNG | inactive
8 | LHQCRDKL | inactive
9 | DVRIIAV | inactive
10 | SFEPRSLMYNTNRGI | inactive
11 | QHSSLKWYLYDYRFLLYTVL | -0.562 ± 0.5
12 | HVNLIDTKNSLMQMLN | inactive
13 | NSRNMVNGHLH | inactive
14 | YYWDKLFCMYKTAHGVSIYV | inactive
15 | PGKKL | -0.453 ± 1.4
16 | QYGIKGRRVKCWLCWHGDVE | inactive
17 | FDFWEDRVCPIYNCLGCGKL | inactive
18 | ASHYTVSFFSENDAHRGACR | inactive
19 | IVWASTWTCCTN | 2.73 ± 0.049
20 | PETWDTRCGV | 0.03 ± 0.88
21 | HMWLFKIQDLMLAHPITGSW | inactive

Row | Substance | amyloid nucleation score
22 | VYFRVFCFVSLCGVY | -0.548 ± 0.9
23 | ALARELIFLLCMNVRLMGFK | inactive
24 | LINKFRWPTPNECLVPVFQD | inactive
25 | NLPRKGSGWDIHDRRHPWRS | inactive
26 | LGSCCLLYYYAKTVMNMFSK | inactive
27 | WLEDTSSTDF | 0.348 ± 0.22
28 | VYYYKMTGKVYMSLYMGKLL | inactive
29 | RVRFLCIMFWDH | -0.038 ± 0.66
30 | MKIGETYDLTSINPAAWNVR | inactive
31 | NYDKCSDPRRRRRLFFHLYD | inactive
32 | QHYLVYY | inactive
33 | QCSWLCIWMGVYLTLILSCA | 0.805 ± 0.17
34 | MRYVHRCSRWYLLQQLLRIH | inactive
35 | SWMYEFGSGTVKGGGKSELD | inactive
36 | MEVLLVIYSDCERARSDTNI | inactive
37 | GEDIL | inactive
38 | YCDNYYSLMSTTEEFPRVCV | inactive
39 | MLTFLVYSCGTGWVCPLLRK | inactive
40 | HGCWKQPDQVVLLWSHRFFR | inactive
41 | THMATNLAGMYREAHGSGGI | inactive
42 | AKICLFV | inactive

Row | Substance | amyloid nucleation score
43 | PVMLGYGMGYSATVVKGCCL | inactive
44 | DFMRVGVTRRALRVLSKSSD | inactive
45 | CQISWL | inactive
46 | VVMWAPLRYDFKSKDRAVES | inactive
47 | LSCYRVFSYCT | inactive
48 | NFTGSCVPVIRQMASCFSSF | inactive
49 | FSQIPRYISNTKRWLWDYVN | inactive
50 | VEELKYRHNALNFRKNVQSL | inactive
51 | FFVLGRSTMSWLR | inactive
52 | FMLNVVDY | inactive
53 | RMLMIMVACVGTYDSSN | inactive
54 | MLFSIICNFGNKFLTYKEFT | 0.89 ± 0.24
55 | SLFFN | inactive
56 | VSCMLLSRDLCLQSFIWMLL | inactive
57 | HMQTGDDRLMQAAYMHLEHI | inactive
58 | SVTFANTSRHYPLADLSTPT | 0.162 ± 0.27
59 | EVDLLSVNPGVYWDLDWIWF | -0.292 ± 0.88
60 | KLVYFRVFKSRFRSRVGGMV | inactive
61 | LIEWYFDN | inactive
62 | HYLQS | inactive
63 | SIFAVSGLSVF | inactive

Row | Substance | amyloid nucleation score
64 | TIVFCIVLGWLEFHRHFVSD | inactive
65 | GYTRVRVGCYVTVRKFWSMT | -0.14 ± 1
66 | VYHLQLLVGVRGLNPRCAQE | inactive
67 | NSGIFFLVMTSKLNAVLCLA | inactive
68 | VFLVTSRVNIRCVVLHIINE | 1.08 ± 0.11
69 | FLSSCKLMGFMS | inactive
70 | QCSDVLYY | inactive
71 | REKTWFCSFIVTLGVCGWDG | inactive
72 | NRINLDSSPLKGYFLINTIT | inactive
73 | VTSNSDRT | inactive
74 | SDVKSS | inactive
75 | CMRYVGSPDNRHWASGKGIP | inactive
76 | WRVSNKIIPIIRWQWMDPCL | inactive
77 | GFFCIYWGHWGFSES | inactive
78 | LSDYLGYDG | inactive
79 | PYMWGFIKRWNRNCAGSFAL | inactive
80 | RPSSVDRLGSRDIRG | -0.413 ± 1.9
81 | FCFNGRCIFFYSSSLYVFGF | inactive
82 | VILNCR | inactive
